Data published in patent US20080081903A1, “METHOD FOR SCREENING TRANSCRIPTIONAL COREGULATORY PROTEINS OF TRANSCRIPTION FACTORS, AND ANDROGEN RECEPTOR TRANSCRIPTIONAL COREGULATORY PROTEINS AS TARGETS FOR ANDROGEN RECEPTOR-DEPENDENT DISEASES” (NEW YORK UNIVERSITY, priority 2001, published 2008).

Molecular target: T1, androgen receptor transcriptional activation (Homo sapiens, UniProt P10275)
T1 construct: The pcDNA3:hAR expression plasmid was used to produce full length human AR; expressed in transfected cells; host or cells: HeLa and PC-3 (both AR deficient)
T1 sequence (P10275 1-920): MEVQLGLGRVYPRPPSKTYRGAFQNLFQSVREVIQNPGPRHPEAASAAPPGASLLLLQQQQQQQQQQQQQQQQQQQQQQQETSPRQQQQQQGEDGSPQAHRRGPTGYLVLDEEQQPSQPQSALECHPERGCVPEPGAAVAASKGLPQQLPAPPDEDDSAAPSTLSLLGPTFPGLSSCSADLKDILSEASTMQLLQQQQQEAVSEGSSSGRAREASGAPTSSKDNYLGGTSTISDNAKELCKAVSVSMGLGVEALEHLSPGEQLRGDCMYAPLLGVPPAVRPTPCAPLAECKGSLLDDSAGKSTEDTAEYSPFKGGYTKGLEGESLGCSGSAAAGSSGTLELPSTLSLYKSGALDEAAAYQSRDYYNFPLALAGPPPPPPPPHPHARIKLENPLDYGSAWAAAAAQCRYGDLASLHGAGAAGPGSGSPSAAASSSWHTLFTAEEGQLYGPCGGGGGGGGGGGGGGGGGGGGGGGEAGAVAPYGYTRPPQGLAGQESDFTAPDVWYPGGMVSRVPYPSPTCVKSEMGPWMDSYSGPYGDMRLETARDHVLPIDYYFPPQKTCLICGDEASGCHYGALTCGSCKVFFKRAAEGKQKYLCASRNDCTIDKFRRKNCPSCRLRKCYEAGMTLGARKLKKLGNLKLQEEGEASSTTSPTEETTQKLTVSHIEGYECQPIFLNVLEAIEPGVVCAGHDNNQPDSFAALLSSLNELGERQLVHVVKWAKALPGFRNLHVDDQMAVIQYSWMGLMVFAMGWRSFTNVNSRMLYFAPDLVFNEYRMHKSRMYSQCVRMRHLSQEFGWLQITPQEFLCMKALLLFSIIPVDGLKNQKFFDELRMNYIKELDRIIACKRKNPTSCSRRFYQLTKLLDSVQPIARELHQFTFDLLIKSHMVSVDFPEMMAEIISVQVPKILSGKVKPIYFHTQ
Experiment: Transient transfection, AR-responsive luciferase reporter assay
Assay type: cell-based
Settings: overexpressed in cultured mammalian cells
Excerpt: The two ART-27 derivatives used in the mammalian cell culture experiments were constructed as follows: using EcoRI-XhoI, ART-27 was subcloned from pEG202:ART-27 into a pcDNA3 vector that has an N-terminal HA epitope (pCDNA3-HA) in the same reading frame as the LexA moiety in pEG202 with respect to the EcoRI site; ART-271-127 was subcloned from pEG202:ART-271-127 into pcDNA3-HA, pJG4-5:Sp183-262, pJG4-5:Sp1263-542, pJG4-5:TAF130270-700, and pJG4-5:CREB3-296 were provided by N. Tanese (New York University School of Medicine, New York). pJG4-5:SRC-1374-800 was provided by H. Samuels (New York University School of Medicine, New York). pJG4-5:GR107-237 was previously described (Hittelman et al., 1999). The pJK103 reporter plasmid, which contains a single LexA operator linked to β-galactosidase, was used in all activity assays of the LexA fusion proteins and in the modified two-hybrid assay. The pΔ4X-LALO-luciferase reporter plasmid, which contains four LexA operators upstream of a minimal Drosophila alcohol dehydrogenase promoter linked to luciferase, was used in mammalian activity assays to monitor the intrinsic transcriptional activity of the LexA fusion proteins. […]

- androgen receptor-dependent transactivation: increase
B1: ART-5: Androgen Receptor Trapped protein, SEQ ID NO:4, unknown function, represented in EST database (protein)
chain: MHNPDGSASPTADPGSELQTLGQAARRPPPPRAGHDAPRRTRPSARKPLSCFSRRPMPTREPPKTRGSRGHLHTHPPGPGPPLQGLAPRGLKTSAPRPPCQPQPGPHKAKTKKIVFEDELLSQALLGAKKPIGAIPKGHKPRPHPVPDYELKYPPVSSERERSRYVAVFQDQYGEFLELQHEVGCAQAKLRQLEALLSSLPPPQSQKEAQVAARVWREFEMKRMDPGFLDKQARCHYLKGKLRHLKTQIQKFDDQGDSEGSVYF
modifications: Human
